Measured values from US5679770A, “Polypeptide, DNA fragment encoding the same, drug composition containing the same and process for producing the same” (Mochida Pharmaceutical Co., Ltd., priority 1991, dated 1997).
Numbering of substitutions follows the chain as printed. Names and notes keep the numbering of the source.

T1: Bovine trypsin (Bos taurus, UniProt P00760)
T1 construct: purchased Sigma Chemical Co. Type XIII
T1 sequence (P00760 24-246): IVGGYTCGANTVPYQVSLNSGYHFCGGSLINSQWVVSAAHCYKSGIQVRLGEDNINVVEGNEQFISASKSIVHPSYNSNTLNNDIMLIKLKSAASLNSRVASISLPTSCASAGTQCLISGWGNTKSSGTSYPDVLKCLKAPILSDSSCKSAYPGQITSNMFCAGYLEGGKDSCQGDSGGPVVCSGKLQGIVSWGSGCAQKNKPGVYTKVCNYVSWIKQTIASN

B1: Q19R/Y46D: formula 1 sequence with Arg for position 15 Gln and Asp for position 42 Tyr; SEQ. I.D. NO. 36; plasmid pM744 (protein)
chain: AACNLPIVRGPCRAFIRLWAFDAVKGKCVLFPYGGCQGNGNKFDSEKECREYCGVPGDGDEELLRFSN
B2: Q19K/Y46D: formula 1 sequence with Lys for position 15 Gln and Asp for position 42 Tyr; SEQ. I.D. NO. 35; plasmid pM727 (protein)
chain: B1 chain with R17K

Key:
[1] = molecular target: activated blood coagulation factor X (FXa) (Homo sapiens, UniProt P00742); conditions: background statement; cited from earlier work
activated blood coagulation factor X (FXa), sequence (P00742 235-488 limits assumed): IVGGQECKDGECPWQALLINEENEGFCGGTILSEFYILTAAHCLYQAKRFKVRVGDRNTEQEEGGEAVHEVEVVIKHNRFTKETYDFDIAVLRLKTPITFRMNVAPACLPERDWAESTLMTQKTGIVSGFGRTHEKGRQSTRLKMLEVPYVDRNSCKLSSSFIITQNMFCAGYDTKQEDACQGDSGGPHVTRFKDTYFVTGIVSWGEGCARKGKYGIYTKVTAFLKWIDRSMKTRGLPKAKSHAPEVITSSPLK
activated blood coagulation factor X (FXa), sequence (P00742 41-179 partner limits assumed): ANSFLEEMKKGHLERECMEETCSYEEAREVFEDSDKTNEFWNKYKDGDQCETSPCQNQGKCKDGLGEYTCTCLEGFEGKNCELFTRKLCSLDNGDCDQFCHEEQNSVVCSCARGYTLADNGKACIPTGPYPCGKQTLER

human FXa = molecular target: T2, human FXa (Homo sapiens, UniProt P00742); assay: FXa-inhibiting activity (synthetic substrate S-2222); format: biochemical; conditions: concentration expressed as bovine trypsin-inhibiting activity; for FXa-inhibiting activity, times higher than that of polypeptide AN68: relative to control AN68; for FXa-inhibiting activity, times higher than that of polypeptide TN70: relative to control TN70
T2 construct: purchased American Diagnostica Inc
T2 sequence (P00742 235-488 limits assumed): as the sequence (P00742 235-488 limits assumed) above
T2 sequence (P00742 41-179 partner limits assumed): as the sequence (P00742 41-179 partner limits assumed) above
Procedure: The purified polypeptide of the present invention was dissolved in 100 μl of distilled water. Polypeptide concentration of this solution was determined based on its bovine trypsin-inhibiting activity measured in accordance with the above procedure (1) using the aforementioned UTI as a standard. The thus prepared solution was then diluted to various concentration levels with 0.1% BSA/150 mM NaCl/5 mM CaCl2 /50 mM Tris-HCl buffer (pH 8.3) for use in the activity measurement. Separately from this, a polypeptide TN70 (cf. Japanese Patent Application No. 3-325220) and polypeptide AN68 were purified respectively in accordance with the procedure of Example 2(4) from a culture supernatant of E. coli JE5505(pM552) (deposit No., FERM BP-3561) and E. coli JE5505(pM594) obtained by transforming E. coli JE5505 with the aforementioned plasmid pM594 obtained in Example 4. The thus purified polypeptide TN70 and AN68 were diluted to various concentration levels to be used as control solutions.
Using a synthetic compound S-2222 (Daiichi Pure Chemicals Co., Ltd.) as a substrate, FXa-inhibiting activities in the thus prepared test sample solution and control solution were measured in accordance with the method of Ohno et al. (Ohno H. et al., Thromb. Res., vol.19, pp.579-588, 1980) as follows. First, human FXa (American Diagnostica Inc.) was dissolved in distilled water to a final concentration of 10 PEU/ml and the solution was further diluted with the aforementioned 0.1% BSA/150 mM NaCl/5 mM CaCl2 /50 mM Tris-HCl buffer (pH 8.3) to prepare 0.1 PEU/ml of FXa solution. Separately from this, a 4 mM solution of S-2222 was prepared by dissolving it in distilled water and the solution was further diluted with the 0.1% BSA/150 mM NaCl/5 mM CaCl2 /50 mM Tris-HCl buffer (pH 8.3) to obtain a 2 mM solution of S-2222.
Next, 25 μl of the test sample or control solution was mixed with 100 μl of the 0.1% BSA/150 mM NaCl/5 mM CaCl2 /50 mM Tris-HCl buffer (pH 8.3) and 25 μl of the FXa solution. After incubating statically at 37° C. for 10 minutes, 100 μl of the S-2222 solution was added to start the reaction. The reaction was carried out at 37° C. for 30 minutes and then stopped by adding 50 μl of 50% acetic acid solution to the reaction mixture. Thereafter, absorbance at a wavelength of 405 nm was measured using a spectrophotometer. In this instance, in order to eliminate absorbancy of various contents in the reaction mixture other than the reaction product, a blank solution was prepared by mixing 25 μl of the FXa solution with 50 μl of 50% acetic acid and then with 25 μl of each test sample or the control solution, 100 μl of the 0.1% BSA/150 mM NaCl/5 mM CaCl2 /50 mM Tris-HCl buffer (pH 8.3) and with 100 μl of the S-2222 solution.
The results are shown in FIG. 45 to FIG. 53 and FIG. 66. In these figures, polypeptide concentration in the reaction solution was expressed as its bovine trypsin-inhibiting activity. Also, residual human FXa activity was expressed by percentage based on the absorbance of a control reaction mixture in which 25 μl of the 0.1% BSA/150 mM NaCl/5 mM CaCl2 /50 mM Tris-HCl buffer (pH 8.3) was used instead of the test sample.

Bovine trypsin = molecular target: T1, Bovine trypsin; assay: Bovine trypsin-inhibiting activity (synthetic substrate S-2444); format: biochemical; conditions: purified polypeptide, serially diluted
Procedure: The purified polypeptide of the present invention was dissolved in 100 μl of distilled water, and the solution was serially diluted with a 0.1% BSA/0.2M triethanolamine-HCl buffer (pH 7.8) for use in the activity measurement. Measurement of the trypsin-inhibiting activity in the thus prepared test sample was carried out in accordance with the Kassell's method (Kassell, B. et al., Methods in Enzymology, vol.19, pp.844-852, 1970) using a synthetic substrate S-2444 (Daiichi Pure Chemicals Co., Ltd.).
Bovine trypsin (Type XIII, Sigma Chemical Co.) was dissolved in 0.001M HCl to a final concentration of 13,600 BAEEU/ml and the solution was further diluted with 0.1% BSA/0.2M triethanolamine-HCl buffer (pH 7.8) to prepare 1.2 BAEEU/ml of trypsin solution. Separately from this, 2 mM solution of the synthetic substrate S-2444 was prepared by dissolving it in distilled water. Next, 100 μl of the test sample was mixed with 100 μl of the trypsin solution. After incubating statically at 37° C. for 10 minutes, 50 μl of the S-2444 solution was added to start the reaction. The reaction was carried out at 37° C. for 15 minutes and then stopped by adding 50 μl of 50% acetic acid solution to the reaction mixture. Thereafter, absorbance at a wavelength of 405 nm was measured using a spectrophotometer. In this instance, in order to eliminate absorbancy of various contents in the reaction mixture other than the reaction product, a blank solution was prepared by mixing 100 μl of the bovine trypsin solution with 50 μl of 50% acetic acid and then with 100 μl of each test sample and 50 μl of the S-2444 solution.

human trypsin = molecular target: T3, human trypsin (Homo sapiens, UniProt P07477); assay: Human trypsin-inhibiting activity (synthetic substrate S-2444); format: biochemical; conditions: purified polypeptide, various concentration levels
T3 construct: purchased Calbiochem
Procedure: The purified polypeptide of the present invention was dissolved in 100 μl of distilled water. Concentration of polypeptide in the thus prepared solution was determined based on its bovine trypsin-inhibiting activity measured in accordance with the above procedure (1) using UTI (Mochida Pharmaceutical Co., Ltd.; cf. H. Ohnishi et al., Nippon Yakurigaku Zasshi, vol.85, pp.1-6, 1985) as a standard. The polypeptide solution was then diluted to various concentration levels with 0.03% BSA/0.2M triethanolamine-HCl buffer (pH 7.8) for use in the activity measurement. Separately from this, human trypsin (Calbiochem) was dissolved in 1 mM HCl to a concentration of 1,000 SU/ml and the solution was further diluted with the 0.03% BSA/0.2M triethanolamine-HCl buffer (pH 7.8) to prepare a 1.25 SU/ml solution of human trypsin. Thereafter, human trypsin-inhibiting activity was measured in the same manner as described in the above procedure (1) using the aforementioned synthetic substrate S-2444. Separately from this, polypeptide AN68 (sequence described in Example 17(3)) was diluted to various concentration levels. Thereafter, human trypsin-inhibiting activity was measured in the same manner as described in the above procedure (1) and compared with the trypsin-inhibiting activity of the novel polypeptide of the present invention.

Molecule	FXa-inhibiting activity [1]	FXa-inhibiting activity, times higher than that of polypeptide AN68 (human FXa)	bovine trypsin inhibition (Bovine trypsin)	human trypsin inhibition (human trypsin)	FXa-inhibiting activity, times higher than that of polypeptide TN70 (human FXa)
polypeptide of formula 1: unsubstituted parent polypeptide whose sequence coincides with a part of UTI or Bikunins (HI-30) (CNLPIVRGPCRAFIQLWAFDAVKGKCVLFPYGGCQGNGNKFYSEKECREYC) [reference compound]	high FXa-inhibiting activity				
R11E/Y46E: formula 1 sequence with Glu for position 7 Arg and Glu for position 42 Tyr; SEQ. I.D. No. 10; plasmid pM726B (AACNLPIVEGPCRAFIQLWAFDAVKGKCVLFPYGGCQGNGNKFESEK)		about three	can inhibit bovine trypsin in a concentration-dependent manner	can inhibit human trypsin in a concentration-dependent manner	
Q19R/Y46E: formula 1 sequence with Arg for position 15 Gln and Glu for position 42 Tyr; SEQ. I.D. NO. 16; plasmid pM737B (AACNLPIVRGPCRAFIRLWAFDAVKGKCVLFPYGGCQGNGNKFESEK)		about ten	can inhibit bovine trypsin in a concentration-dependent manner	can inhibit human trypsin in a concentration-dependent manner	
Q19K: formula 1 sequence with Lys for position 15 Gln; amino acids 1-70 of SEQ. I.D. NO. 4; plasmid pM576 (DDAACNLPIVRGPCRAFIKLWAFDAVKGKCVLFPYGGCQGNGNKFYSEK)			can inhibit bovine trypsin in a concentration-dependent manner	can inhibit human trypsin in a concentration-dependent manner	about five
Y46E: formula 1 sequence with Glu for position 42 Tyr; amino acids 1-70 of SEQ. I.D. NO. 2; from plasmid pM575B (TVAACNLPIVRGPCRAFIQLWAFDAVKGKCVLFPYGGCQGNGNKFESEK)			can inhibit bovine trypsin in a concentration-dependent manner	can inhibit human trypsin in a concentration-dependent manner	about seven
Y46E-AN: formula 1 sequence with Glu for position 42 Tyr; amino acids 1-68 of SEQ. I.D. NO. 12; plasmid pM575C (MKQSTIALALLPLLFTPVTKA)			can inhibit bovine trypsin in a concentration-dependent manner	can inhibit human trypsin in a concentration-dependent manner	
Q19K/Y46E: formula 1 sequence with Lys for position 15 Gln and Glu for position 42 Tyr; SEQ. I.D. NO. 8; plasmid pM736 (AACNLPIVRGPCRAFIKLWAFDAVKGKCVLFPYGGCQGNGNKFESEK)		about ten	can inhibit bovine trypsin in a concentration-dependent manner	can inhibit human trypsin in a concentration-dependent manner	
Q19R: formula 1 sequence with Arg for position 15 Gln; amino acids 1-68 of SEQ. I.D. NO. 6; plasmid pM735 (AACNLPIVRGPCRAFIRLWAFDAVKGKCVLFPYGGCQGNGNKFYSEK)		about six	can inhibit bovine trypsin in a concentration-dependent manner	can inhibit human trypsin in a concentration-dependent manner	
Q19K-AN: formula 1 sequence with Lys for position 15 Gln; amino acids 1-68 of SEQ. I.D. NO. 14; plasmid pM576B (AACNLPIVRGPCRAFIKLWAFDAVKGKCVLFPYGGCQGNGNKFYSEK)			can inhibit bovine trypsin in a concentration-dependent manner	can inhibit human trypsin in a concentration-dependent manner	
B1		about 18 times	can inhibit bovine trypsin in a concentration-dependent manner	can inhibit human trypsin in a concentration-dependent manner	
B2		about twenty	can inhibit bovine trypsin in a concentration-dependent manner	can inhibit human trypsin in a concentration-dependent manner	
